{"source": "the nanobody polyreactivity screen of Harvey et al. (2022)", "data": [{"assay": "yeast display, Sf9 membrane polyspecificity reagent, FACS + sequencing; frameworks hold sequencing errors", "procedure,_shortened": "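After 36–48 hours of galactose induction, yeast (Saccharomyces cerevisiae BJ5465) displaying a synthetic nanobody library were stained at 4 °C for 1 hour with 10% biotinylated, detergent-solubilized Sf9 membrane reagent. Streptavidin microbeads enriched the stained cells before FACS sorting into low and high (top ~1%) gates on anti-HA and streptavidin fluorescence. Each clone's polyreactivity label reflects its gate of origin.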", "values": [{"sequence": "QVQLVESGGGLVQAGGSLRLSCAASGLIFPSYARGWYRQAPGKERELVAGINSGGSTNYADSVKGRFTISRDNAKNTVYLQMNSLKPEDTAVYYCAKDNNYYWYVSPRDYWGQGTQVTVSS", "polyreactivity (PSR sort gate)": "low polyreactivity"}, {"sequence": "QVQLVESGGGLVQAGGSLRLSCAASGIIFHYYAMGWYRQAPGKEREFVASISFSGASTYYADSVKGRFTISRDNAKNTVYLQMNSLKPEDTAVYYCAARYLYGPKYYYCGQGTQVTVSS", "polyreactivity (PSR sort gate)": "high polyreactivity"}, {"sequence": "QVQLVESGGGLVQAGGSLRLSCAASGSNFGRYAMGWYRQAPGKESELVAAINDDSGRTYYADTVKGRFTISRDNAKNTVYLQMNSLKPEDTAVYYCAAYRISQGYSTYNYWGQGTQVTVSS", "polyreactivity (PSR sort gate)": "high polyreactivity"}, {"sequence": "QVQLVESGGGLVQAGGSLRLSCAASGRIFRRYAMGWYRQAPGKERELVAAISSGGSTYYADSVKGRFTISRDNAKKTVYLQMNSLKPEDTAVYYCNAKVGAYLNYGYWGQGTQVTVSS", "polyreactivity (PSR sort gate)": "low polyreactivity"}, {"sequence": "QVQIVESGGGLVQAGGSLRLSCAASGSTFTIYAMGRYRQAPGKERELVAAISSGGSTYYADSVKGRFTISRDNAKNTVYLQMNSLKPEDTAVYYCAARVYLSGYGYNYWGQGTQVTVSS", "polyreactivity (PSR sort gate)": "high polyreactivity"}, {"sequence": "QVQLVESGGGLVQAGGRLRLSCAASGRTFYSYTMGWYRPAPGKERELVAAIRYSGDRTYYADSVKGRFTISRDNAKNTVDLQMNSLKPEDTAVYYCGKAAPYPGSFYYWGQGTQVTVSS", "polyreactivity (PSR sort gate)": "low polyreactivity"}, {"sequence": "QVNLVDSGGGLVQAGGSHRLSCAASGSIVSGNAMGWYRQEPGKERELVATISWSGGSTNYADSVKGRFTISRDNAKNTVYLQMNSLKPEDTAVYYCNAYVAYWGWVYRVDYWGQGTQVTVSS", "polyreactivity (PSR sort gate)": "low polyreactivity"}, {"sequence": "QVQLVESGGGLVQAGGSLRLSCAASGSIFDFYAMGWYRQAPGKERELVATITASGGSTYYADSVKGRFTISRDNAKNTVYLQMNSLKPEDTAVSYCNADSVYWGQGTQVTVSS", "polyreactivity (PSR sort gate)": "low polyreactivity"}, {"sequence": "QVKLVESGGGLVQAGGSLRLSCAASGIIFYDYAMGWYRQAPGKERELVAAISSGGDTYYADSVKGRFTISRDNAKNTVYLQMNSLKPEVTAVYYCAAYPPFIYSDPSIWYDYWGQGSQVTVSS", "polyreactivity (PSR sort gate)": "low polyreactivity"}, {"sequence": "QVQLVESGGGLVQAGGSLRLSCAASGFTIDGYAMGWYRQAPGKERELVAAIRRGGRTKYADSVKGRFTISRDNAKNTVYLQLNSLKPEDTAVYYCNAVTRGYYHEMEYWGQGTQVTVSS", "polyreactivity (PSR sort gate)": "high polyreactivity"}, {"sequence": "QVQLVESGGGLVQAGGSLRLRCAASGSIFYLYAMGWFRRAPGKERELVAASSRSGASTYYADSVKGRFTISRDNAKNTVYLQMNSLKPEDTAVYYGAADYNSQLARIYDYWGQGTQVTVSS", "polyreactivity (PSR sort gate)": "low polyreactivity"}, {"sequence": "QVQLVESGGGLVQAGGSLRLSCAASGRTFTWNAMGWYRQAPGKERELVADITNNGGSTYYADSVKGRFTISRDNATNTVYLQMNSLKPEDTAVYYCDNRRNYWFSFDYWGQGTQVTVSS", "polyreactivity (PSR sort gate)": "low polyreactivity"}, {"sequence": "QVQLVESGGGLVQAGGSLRLSCADSGRTFVGNAMGWYRQAPGKGWEFVAAISRSGGSTNYADSVKGRFTISRDNAKNTVYLQMKSLKPEDTAVYYCAARDRFGGIRRYIYWGQGTQVTVSS", "polyreactivity (PSR sort gate)": "high polyreactivity"}, {"sequence": "QVQLVESGGGLVQAGGRLRLSCAASGLICNANPMGWYRQAPGKEREFVAAITTSGGKTYYADSVKGRFTISRDNAKYTVYLQMNSLKPEDTAVYYCAATDLYFWYPYWFAFEYDYWGLGTQVTVSS", "polyreactivity (PSR sort gate)": "high polyreactivity"}, {"sequence": "QVQLVESGGGLVQAGGSLRLSCAASGSIFGSNAMGWYRQAPGKERELVAAITNTGRTNYADSVKGRFTISRDNAKNTVYLQMNSLKPEDTAVYYCNTDGYEFTHFAAGSGWRFDYWGLGTQVTVSS", "polyreactivity (PSR sort gate)": "low polyreactivity"}, {"sequence": "QVQLVESGGGLVQAGGSLRLSCAASGRTFTRYAMGWYRQAPGKERELVAAISRSGGSTHYADSVKGRFTISRDKAKNTVYLQMNSLKPEDTAVYYCNAQQGRYWSAKGYDYWGQGTQVTVSS", "polyreactivity (PSR sort gate)": "high polyreactivity"}]}]}
